Assays:
[1] = molecular target: T1, SARS-CoV-2 Spike protein peptide on HLA-DPB1*04:01 (human); test: multimer staining
T1 peptide: TFEYVSQPFLMDLE

[2] = molecular target: T2, SARS-CoV-2 Spike protein peptide on HLA-DPB1*04:01 (human); test: activation reporter or marker
T2 peptide: CTFEYVSQPFLMDLE

B1: TCR4.1 (TCR)
alpha TRAV35 TRAJ42 CDR3: CAGMNYGGSQGNLIF
beta TRBV4-1 TRBJ1-2 CDR3: CASSQGVGYTF
binding result [1]: recognises
binding result [2]: recognises

B2: TCR6.3 (TCR)
alpha TRAV35 TRAJ42 CDR3: CAGMNYGGSQGNLIF
beta TRBV6-3 TRBJ1-2 CDR3: CASSYRGAYGYTF
binding result [1]: recognises
binding result [2]: recognises

— paper doi:10.1101/2021.09.08.459485 (2021)
